Source: the supplement of paper PMC9170038

System: K4 kissing-loop RNA reporter
Assay: apparent KD of K4 kissing-loop reporter; higher = weaker reporter binding
Conditions: Eterna round: R107
Procedure: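 RNA-MaP round R107: designed RNA switches with theophylline, tryptophan, arginine or FMN aptamers are transcribed on-chip within common flanks. They are titrated with a labelled K4 kissing-loop RNA reporter in RNA-MaP buffer (100 mM Tris pH 7.5, 80 mM KCl, 4 mM MgCl2), without ligand or with the indicated ligand. Median apparent KD per design.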

[1] = input ligand: theophylline 20 uM
[2] = input ligand: tryptophan 2.4 mM
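Also: bound reporter read as fluorescence of individual clusters on recovered sequencing chips by microscopy, with normalized cluster intensities fitted with a binding model.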

With “AGGAGCGUGCGAUGAAAAUCGCACGCUCCUCGAGGACCGGUACGGCCGCCACUCGCUCGCGCCGAGUGAUGUUCGGCCGGCGAAC [#2 Same State - Tryptophan A Attempt #8 (HarryS)]” as the sequence, how does the “apparent KD of K4 kissing-loop reporter” value (input ligand: FMN 200 uM) read?
Its value is 194 nM.

And the “apparent KD of K4 kissing-loop reporter” value (input ligand: arginine 13.2 mM)?
The value was 180 nM.

And the “apparent KD of K4 kissing-loop reporter” value (input ligand: none)?
The value was 234 nM.

What about the “apparent KD of K4 kissing-loop reporter” value [1] of the same sequence?
The value was 269 nM.

And the “apparent KD of K4 kissing-loop reporter” value [2]?
Its value is 966 nM.

Which results are given for “GGAUCCACCAGUGAUGUUGGAGAAAACUCCAAGGAUAUGACGAAAGUCAGAAGGUGGUAGACUGGUCAAAGUCCGGUCGGAUCCA [FmnA10 U66]”?
apparent KD of K4 kissing-loop reporter (input ligand: FMN 200 uM): 297 nM; apparent KD of K4 kissing-loop reporter (input ligand: arginine 13.2 mM): 77.4 nM; apparent KD of K4 kissing-loop reporter (input ligand: none): 338 nM; apparent KD of K4 kissing-loop reporter [1]: 297 nM; apparent KD of K4 kissing-loop reporter [2]: 262 nM

How did the “apparent KD of K4 kissing-loop reporter” value (input ligand: FMN 200 uM) turn out when “AAAUUUAAUAUAUUUAAUUAAUUAUGUGAUACCAGACAUUAAUAAGUCCCUUGGCAGCACAAUGCAGUGAUGUUGCAUAUAAUAA [JR_SSTheophyA_Sub011]” was run?
The value was 69.4 nM.

And the “apparent KD of K4 kissing-loop reporter” value (input ligand: arginine 13.2 mM)?
The value was 115 nM.

And the “apparent KD of K4 kissing-loop reporter” value (input ligand: none)?
Its value is 73.5 nM.

What about the “apparent KD of K4 kissing-loop reporter” value [1] of the same sequence?
The value was 84.8 nM.

What about the “apparent KD of K4 kissing-loop reporter” value [2] of the same sequence?
The value was 65.4 nM.

What does the source list for “GAUGAAUGCGGAAGGAGCGAGUUUUUGGGAGUGAUGUUCCCUGCAUAUGCACGUGGGAAAGCUCAGGUAGGUCGCCGCGCUUGUU [Same State Arginine B GF 28]”?
apparent KD of K4 kissing-loop reporter (input ligand: FMN 200 uM): 183 nM; apparent KD of K4 kissing-loop reporter (input ligand: arginine 13.2 mM): 244 nM; apparent KD of K4 kissing-loop reporter (input ligand: none): 324 nM; apparent KD of K4 kissing-loop reporter [1]: 208 nM; apparent KD of K4 kissing-loop reporter [2]: 204 nM

Which “apparent KD of K4 kissing-loop reporter” value (input ligand: FMN 200 uM) does the source give for “CGCAGUGAUGUUGCGAGUUCAUUCAGGGAAGGAGCGCCACAGAUGGCAGGUAGGUCGCCCACGCAGUGAUGUUGUGUAUUCGGGU [Exclusion Arginine A GF 2]” here?
Its value is 202 nM.

And the “apparent KD of K4 kissing-loop reporter” value (input ligand: arginine 13.2 mM)?
Its value is 153 nM.

And the “apparent KD of K4 kissing-loop reporter” value (input ligand: none)?
The value was 165 nM.

And the “apparent KD of K4 kissing-loop reporter” value [1]?
Its value is 170 nM.

And the “apparent KD of K4 kissing-loop reporter” value [2]?
The value was 137 nM.

With “AUGGUUGUCGUAGGAUAUGUAGGAUAUUCUAAAAUAUGAAGUGAUGUUUCUAUAAUAAGAAGAAGGACAGAAGGACGAUAACCAC [FmnBS 1 - SaraBot transfer #DoubleAptamer]” as the sequence, how does the “apparent KD of K4 kissing-loop reporter” value (input ligand: FMN 200 uM) read?
The value was 90.4 nM.

And the “apparent KD of K4 kissing-loop reporter” value (input ligand: arginine 13.2 mM)?
The value was 104 nM.

What about the “apparent KD of K4 kissing-loop reporter” value (input ligand: none) of the same sequence?
The value was 114 nM.

And the “apparent KD of K4 kissing-loop reporter” value [1]?
The value was 89.3 nM.

And the “apparent KD of K4 kissing-loop reporter” value [2]?
The value was 108 nM.

How did the “apparent KD of K4 kissing-loop reporter” value (input ligand: FMN 200 uM) turn out when “ACACUUUACGUAGGAUAUGCGACGAGUGAUGUUCGUCAGGCGGCUUUAGAUUAUACAAGCCGCCUAGCAGAAGGACGGGCAGUGU [Araar]” was run?
The value was 127 nM.

And the “apparent KD of K4 kissing-loop reporter” value (input ligand: arginine 13.2 mM)?
The value was 157 nM.

What about the “apparent KD of K4 kissing-loop reporter” value (input ligand: none) of the same sequence?
The value was 172 nM.

And the “apparent KD of K4 kissing-loop reporter” value [1]?
The value was 158 nM.

What about the “apparent KD of K4 kissing-loop reporter” value [2] of the same sequence?
Its value is 170 nM.

Which “apparent KD of K4 kissing-loop reporter” value (input ligand: FMN 200 uM) does the source give for “GUUACGCAUGGAAGGAGCGCACUCCGAUUGGGCGACGCAGUGAUGUUGUGGUUCGUUCGAAUGCAGGUAGGUCGCCAUGUGUAAC [Ex Arginine B K4 21]” here?
The value was 186 nM.

What about the “apparent KD of K4 kissing-loop reporter” value (input ligand: arginine 13.2 mM) of the same sequence?
Its value is 172 nM.

What about the “apparent KD of K4 kissing-loop reporter” value (input ligand: none) of the same sequence?
The value was 176 nM.

What about the “apparent KD of K4 kissing-loop reporter” value [1] of the same sequence?
Its value is 141 nM.

What about the “apparent KD of K4 kissing-loop reporter” value [2] of the same sequence?
The value was 192 nM.

Which “apparent KD of K4 kissing-loop reporter” value (input ligand: FMN 200 uM) does the source give for “GUCCCAGUGAUGUUGGUAGGCGGGCGGGAUACCAGCGAAGACUCACGCCCUUGGCAGCCCACAUAUCCCGCGUAGGGAUUAGCCC [Same State - Theophylline A (Freestyle 22)]” here?
Its value is 652 nM.

What about the “apparent KD of K4 kissing-loop reporter” value (input ligand: arginine 13.2 mM) of the same sequence?
The value was 437 nM.

What about the “apparent KD of K4 kissing-loop reporter” value (input ligand: none) of the same sequence?
Its value is 656 nM.

What about the “apparent KD of K4 kissing-loop reporter” value [1] of the same sequence?
The value was 638 nM.

And the “apparent KD of K4 kissing-loop reporter” value [2]?
The value was 457 nM.

“UAAAAUAAAUAAUAGAGAGCGUUACUCGAAGGAGCGACGAAUUCGUCAGGUAGGUCGCGAGUGAUGUUCGCAAAUACGCUCUCAU [AK2 Exc Arginine A]” was tested. Which “apparent KD of K4 kissing-loop reporter” value (input ligand: FMN 200 uM) did it give?
The value was 838 nM.

What about the “apparent KD of K4 kissing-loop reporter” value (input ligand: arginine 13.2 mM) of the same sequence?
The value was 655 nM.

And the “apparent KD of K4 kissing-loop reporter” value (input ligand: none)?
The value was 850 nM.

What about the “apparent KD of K4 kissing-loop reporter” value [1] of the same sequence?
Its value is 696 nM.

And the “apparent KD of K4 kissing-loop reporter” value [2]?
The value was 682 nM.

“AUACGUUUCAGAGGAUAUCGGAGGAGAGUGAUGUUCUCCCAUAGCCCAGUGAUGUUGGAAGCUAUCCGAGAAGGCUGUGGGCGUA [Same State FMN B GF 15]” was tested. Which “apparent KD of K4 kissing-loop reporter” value (input ligand: FMN 200 uM) did it give?
The value was 145 nM.

What about the “apparent KD of K4 kissing-loop reporter” value (input ligand: arginine 13.2 mM) of the same sequence?
Its value is 174 nM.

And the “apparent KD of K4 kissing-loop reporter” value (input ligand: none)?
The value was 186 nM.

And the “apparent KD of K4 kissing-loop reporter” value [1]?
The value was 179 nM.

And the “apparent KD of K4 kissing-loop reporter” value [2]?
Its value is 179 nM.

What does the source list for “UAAAUUAUCUGAAGGAGCGUGAAAUAAUAUUAAACAUAACAACCCAGUGAUGUUGGGUUAUCACAGGUAGGUCGCAGAUGUAGAU [Same State Arginie B GF 24]”?
apparent KD of K4 kissing-loop reporter (input ligand: FMN 200 uM): 95.6 nM; apparent KD of K4 kissing-loop reporter (input ligand: arginine 13.2 mM): 113 nM; apparent KD of K4 kissing-loop reporter (input ligand: none): 98 nM; apparent KD of K4 kissing-loop reporter [1]: 118 nM; apparent KD of K4 kissing-loop reporter [2]: 85.5 nM

What does the source list for “GGGCGUAUUCACCGAGUGAUGUUCGGAAGGAAGGAUAUUCAAGAUUGAAGAAGGUCCGGCCCAUCGGCCAUUAAACUUGAAAGGU [theeternabot_sameState_KL_FMN_A_48]”?
apparent KD of K4 kissing-loop reporter (input ligand: FMN 200 uM): 171 nM; apparent KD of K4 kissing-loop reporter (input ligand: arginine 13.2 mM): 113 nM; apparent KD of K4 kissing-loop reporter (input ligand: none): 139 nM; apparent KD of K4 kissing-loop reporter [1]: 162 nM; apparent KD of K4 kissing-loop reporter [2]: 117 nM

“AGCUAGUACGCAGGAUAUUGAACAUCAUUUAGUGAGAUCGAGUGAUGUUCGAUCACGACUUCAGUUCGAGAAGGGCGUACUAGCA [#02 K4 FMN B Same State]” was tested. Which “apparent KD of K4 kissing-loop reporter” value (input ligand: FMN 200 uM) did it give?
The value was 160 nM.

And the “apparent KD of K4 kissing-loop reporter” value (input ligand: arginine 13.2 mM)?
Its value is 663 nM.

And the “apparent KD of K4 kissing-loop reporter” value (input ligand: none)?
Its value is 931 nM.

What about the “apparent KD of K4 kissing-loop reporter” value [1] of the same sequence?
Its value is 1070 nM.

What about the “apparent KD of K4 kissing-loop reporter” value [2] of the same sequence?
The value was 861 nM.

“GCAGGACGAUGAGGAGGAUGAAUUACUGAAGGAGCGCAUAUGGUUGCAGGUAGGUCGCGGUGAACAAGUAUAGUGAUGUUAUAUC [SSArgA.R]” was tested. Which “apparent KD of K4 kissing-loop reporter” value (input ligand: FMN 200 uM) did it give?
The value was 755 nM.

And the “apparent KD of K4 kissing-loop reporter” value (input ligand: arginine 13.2 mM)?
Its value is 179 nM.

And the “apparent KD of K4 kissing-loop reporter” value (input ligand: none)?
The value was 138 nM.

What about the “apparent KD of K4 kissing-loop reporter” value [1] of the same sequence?
The value was 471 nM.

And the “apparent KD of K4 kissing-loop reporter” value [2]?
The value was 1050 nM.

Which “apparent KD of K4 kissing-loop reporter” value (input ligand: FMN 200 uM) does the source give for “UGUAUGUGAUGUGAUACCAGUGAAGAGCCAGUGAUGUUGGUAGAACUGGUAUAUAAAUAACACCCUUGGCAGCACAAUCACGUAC [whbob_Ex_Theo_B_sa99]” here?
Its value is 289 nM.

What about the “apparent KD of K4 kissing-loop reporter” value (input ligand: arginine 13.2 mM) of the same sequence?
The value was 243 nM.

What about the “apparent KD of K4 kissing-loop reporter” value (input ligand: none) of the same sequence?
Its value is 286 nM.

What about the “apparent KD of K4 kissing-loop reporter” value [1] of the same sequence?
The value was 320 nM.

And the “apparent KD of K4 kissing-loop reporter” value [2]?
The value was 314 nM.

Which “apparent KD of K4 kissing-loop reporter” value (input ligand: FMN 200 uM) does the source give for “GCUAUGGUAGGAAGGAGCGCUUAUUUAUUUUUACGAGUGAUGUUCGGUAGUAGAUAGUUAAAGCAGGUAGGUCGCCUACUAUAGC [Arginine B K4 16]” here?
Its value is 141 nM.

What about the “apparent KD of K4 kissing-loop reporter” value (input ligand: arginine 13.2 mM) of the same sequence?
The value was 112 nM.

And the “apparent KD of K4 kissing-loop reporter” value (input ligand: none)?
The value was 148 nM.

And the “apparent KD of K4 kissing-loop reporter” value [1]?
Its value is 135 nM.

And the “apparent KD of K4 kissing-loop reporter” value [2]?
The value was 123 nM.
